From patent publication US7927864B2, “Methods, kits, and compositions for detecting enzyme activity” (Wake Forest University Health Sciences, priority 2006, dated 2011) come the findings set out here.

The test system of assay [1] is ADAMTS13. Description: FRET measurement of ADAMTS13 cleavage of fluorescein-labeled recombinant VWF73 peptide in plasma. The class given is biochemical. The protocol:
(§1) The working peptide was prepared by dissolving the peptide pellets in DMSO and then diluted with assay buffer, 5 mM Bis-Tris, 25 mM CaCl2, 0.005% Tween 20 at pH 6.0 to a final concentration of 4.5 μM. Pooled Normal Plasma (PNP) was used as a source of ADAMTS13. Heat inactivated PNP, heated overnight at 56° C., and known ADAMTS13-deficient patient plasma were used as negative controls. All samples were diluted 1 in 8 with assay buffer to reduce the ionic strength. Reactions were carried out in 96 well plates using 100 μL of dilute plasma and 100 μL of working peptide solution. The rate of fluorescence increase with time was monitored by a fluorometer.
(§2) FIG. 2 depicts fluorescence of the recombinant peptide during incubation. […] Each experiment was performed in triplicate and mean values are shown. Thus, it is apparent that the fluorescence increase resulting from the separation of fluors by ADAMTS13 cleavage of a labeled peptide substrate is measurable and can be used for FRET based enzyme assays.
(§3) FIG. 3 depicts the rates of change of fluorescence produced by dilutions of PNP in heat inactivated PNP. Undiluted PNP represents 100% ADAMTS13 enzyme activity for purposes of determining quantitative enzyme activity. Each point represents the mean±SEM of triplicate determination. Thus, it is apparent that recombinant fluorescein labeled peptides can be used as effective substrates in quantitative FRET based assays of ADAMTS13. Further techniques for quantitative analysis of enzyme activity are well known to skilled artisans.

Assay [2] concerns the target T1, ADAMTS13 (Homo sapiens, UniProt Q76LX8).
T1 construct: Pooled Normal Plasma (PNP) was used as a source of ADAMTS13; from tissue; host or cells: pooled normal plasma (PNP); the substrate peptide was made in M15 E. coli
T1 sequence (Q76LX8 75-1427): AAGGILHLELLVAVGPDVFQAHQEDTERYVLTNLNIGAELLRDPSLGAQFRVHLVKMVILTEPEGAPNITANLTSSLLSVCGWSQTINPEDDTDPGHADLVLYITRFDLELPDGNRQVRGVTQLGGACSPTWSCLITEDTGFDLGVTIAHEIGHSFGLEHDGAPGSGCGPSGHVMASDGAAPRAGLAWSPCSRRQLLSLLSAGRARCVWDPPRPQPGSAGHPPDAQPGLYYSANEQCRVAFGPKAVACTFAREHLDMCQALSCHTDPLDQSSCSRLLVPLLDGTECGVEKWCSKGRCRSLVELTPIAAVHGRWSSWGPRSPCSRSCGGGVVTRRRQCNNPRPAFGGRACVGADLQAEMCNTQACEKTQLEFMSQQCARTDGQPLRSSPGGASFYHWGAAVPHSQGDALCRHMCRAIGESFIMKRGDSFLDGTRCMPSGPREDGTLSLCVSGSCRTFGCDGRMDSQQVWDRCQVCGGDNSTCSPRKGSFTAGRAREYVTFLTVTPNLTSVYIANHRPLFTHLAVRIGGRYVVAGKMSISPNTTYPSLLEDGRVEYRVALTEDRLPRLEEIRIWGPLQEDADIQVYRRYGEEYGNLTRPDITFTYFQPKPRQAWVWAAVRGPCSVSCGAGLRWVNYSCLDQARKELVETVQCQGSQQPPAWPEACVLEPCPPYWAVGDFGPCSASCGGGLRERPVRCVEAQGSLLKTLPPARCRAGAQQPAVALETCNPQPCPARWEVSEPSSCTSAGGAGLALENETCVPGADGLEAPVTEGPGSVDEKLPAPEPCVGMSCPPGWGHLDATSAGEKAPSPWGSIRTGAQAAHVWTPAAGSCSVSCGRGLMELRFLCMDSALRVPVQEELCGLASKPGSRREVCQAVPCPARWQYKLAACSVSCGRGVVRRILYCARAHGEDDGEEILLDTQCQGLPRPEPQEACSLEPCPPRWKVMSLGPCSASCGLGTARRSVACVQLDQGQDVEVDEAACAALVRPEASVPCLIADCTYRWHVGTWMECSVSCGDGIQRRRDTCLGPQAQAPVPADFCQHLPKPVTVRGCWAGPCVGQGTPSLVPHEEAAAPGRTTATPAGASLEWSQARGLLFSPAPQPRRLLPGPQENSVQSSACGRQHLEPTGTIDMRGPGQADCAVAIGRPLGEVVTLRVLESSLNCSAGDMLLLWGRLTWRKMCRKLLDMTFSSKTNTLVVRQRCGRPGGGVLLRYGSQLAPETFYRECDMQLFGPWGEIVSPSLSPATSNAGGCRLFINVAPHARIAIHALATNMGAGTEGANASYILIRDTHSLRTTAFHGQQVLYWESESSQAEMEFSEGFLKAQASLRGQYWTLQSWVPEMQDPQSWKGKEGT
The assay is described as above. The class given is biochemical. Particulars: incubation with pooled normal plasma (PNP) as source of ADAMTS13; peptide 4.5 μM working solution, plasma diluted 1 in 8, pH 6.0. The protocol: as §1, §2, §3

B1: recombinant peptide: Recombinant His-tagged 73 amino acid VWF A2 peptide (SEQ ID NO: 1); Q1599 and P1611 mutated to cysteines, both labeled with fluorescein (conjugate)
chain: DRECAPNLVYMVTGNCASDEIKRLPGDIQVVPIGVGPNANVQELERIGWPNAPILIQDFETLPREAPDLVLQR
modifications: fluorescein labels on cysteines; His-tag; This is a 73 amino acid fragment of native von Willebrand factor, substituted with cysteines at positions 4 and 16.
notes: Q1599 and P1611 mutated to cysteines, both labeled with fluorescein
Turning to B1, the entries for the “fluorescence of the recombinant peptide during incubation” value in the assay with ADAMTS13 [1] (incubation with heat inactivated PNP (negative control)), in the assay with ADAMTS13 [1] (incubation with plasma samples from TTP patients with no ADAMTS13 activity (negative control)) and with ADAMTS13 [2] were “only minimal change in fluorescence”, “only minimal change in fluorescence” and “steady increase of fluorescence over time”, respectively.
